B1: TPR t1 (parent)
chain: GACCAAUCUGCCCUCAGAGCUCGAGAACAUCUUCGGAUGCAGAGGAGGCAGGCUUCGGUGGCGCGAUAGCGCCAACGUCCUCAACCUCCAAUGCAUCCCACCACAUGAUGAUGCCUGAAGAGCCUUGGUUUUUUG

Variants of: B1
Assay: polymerase ribozyme fitness, log enrichment relative to wild type (log ratio); higher = more active; in vitro selection for triplet polymerase activity
Method in brief: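 Each subunit of a heterodimeric triplet polymerase ribozyme was represented by a PCR-built, transcribed mutant library that underwent triplicate single-round in vitro selection with frozen incubation at −7 °C. Extended constructs were recovered by gel excision, streptavidin-bead capture and RT-PCR, and Illumina sequencing of input and output libraries kept genotypes with ≥10 input reads and ≥1 read per output. Fitness is the logarithm of genotype enrichment relative to wild-type enrichment, from inverse-variance-weighted replicate averages, with a logarithm base of 2.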

**Q.** For C28U U59C G61A C123U, which “polymerase ribozyme fitness (log ratio)” value is on record?
**A.** The value was -6.95.

**Q.** Which “polymerase ribozyme fitness (log ratio)” value does the source give for A29U C53G U81A A121U U132A here?
**A.** The value was -1.75.

**Q.** Which “polymerase ribozyme fitness (log ratio)” value does the source give for C31U G63U G107A here?
**A.** Its value is -2.29.

**Q.** Which “polymerase ribozyme fitness (log ratio)” value does the source give for A29U G69U G120U here?
**A.** The value was -0.561.

**Q.** Which “polymerase ribozyme fitness (log ratio)” value does the source give for U33A G45A G63C here?
**A.** The value was -5.54.

**Q.** For A29U G69U, which “polymerase ribozyme fitness (log ratio)” value is on record?
**A.** The value was -0.63.

**Q.** For C31A U81C C124A, which “polymerase ribozyme fitness (log ratio)” value is on record?
**A.** The value was -5.14.

**Q.** For U32C G44U U92G A118U U133A, which “polymerase ribozyme fitness (log ratio)” value is on record?
**A.** Its value is -3.79.

**Q.** For U33A A66G C123A, which “polymerase ribozyme fitness (log ratio)” value is on record?
**A.** Its value is -6.2.

**Q.** For C31U C49G G63U A75C, which “polymerase ribozyme fitness (log ratio)” value is on record?
**A.** The value was -6.11.

**Q.** For C28U G71A G77A C114A, which “polymerase ribozyme fitness (log ratio)” value is on record?
**A.** The value was -6.98.

**Q.** With U32C G44A G61U U131G as the variant, how does the “polymerase ribozyme fitness (log ratio)” value read?
**A.** The value was -0.948.

**Q.** For U30C U78G, which “polymerase ribozyme fitness (log ratio)” value is on record?
**A.** The value was -3.78.

**Q.** With A29C C70U as the variant, how does the “polymerase ribozyme fitness (log ratio)” value read?
**A.** Its value is -2.29.

**Q.** Which “polymerase ribozyme fitness (log ratio)” value does the source give for A29U C73A C98A here?
**A.** Its value is -4.9.

**Q.** Which “polymerase ribozyme fitness (log ratio)” value does the source give for U30C G42U C76G C85A G122A C123G here?
**A.** Its value is -4.17.

**Q.** Which “polymerase ribozyme fitness (log ratio)” value does the source give for A29G A50U C73A here?
**A.** The value was -2.36.

**Q.** With U30C A37C as the variant, how does the “polymerase ribozyme fitness (log ratio)” value read?
**A.** Its value is -3.86.

**Q.** For C28U A46G U129G, which “polymerase ribozyme fitness (log ratio)” value is on record?
**A.** Its value is -2.5.

**Q.** Which “polymerase ribozyme fitness (log ratio)” value does the source give for C28U G93A C101U here?
**A.** The value was -3.39.

**Q.** With A29C G61U A90G U116G as the variant, how does the “polymerase ribozyme fitness (log ratio)” value read?
**A.** The value was -5.84.

**Q.** Which “polymerase ribozyme fitness (log ratio)” value does the source give for C28U U55C G71A here?
**A.** The value was -3.34.

**Q.** For A29U G69C C98U G113C, which “polymerase ribozyme fitness (log ratio)” value is on record?
**A.** Its value is -4.71.

**Q.** With C31G C88A G110U C115A as the variant, how does the “polymerase ribozyme fitness (log ratio)” value read?
**A.** Its value is -7.42.

**Q.** With C28U A43G G113A as the variant, how does the “polymerase ribozyme fitness (log ratio)” value read?
**A.** The value was -3.91.

**Q.** With U33C C79G A111U as the variant, how does the “polymerase ribozyme fitness (log ratio)” value read?
**A.** The value was -7.17.

**Q.** Which “polymerase ribozyme fitness (log ratio)” value does the source give for U30G C49G C80G G117C here?
**A.** The value was -7.34.

**Q.** For U32C G36A U92A A105U C123A C124G, which “polymerase ribozyme fitness (log ratio)” value is on record?
**A.** Its value is -5.91.

**Q.** With C28U G47U C97U C101U A103G G117C as the variant, how does the “polymerase ribozyme fitness (log ratio)” value read?
**A.** Its value is -7.85.

**Q.** Which “polymerase ribozyme fitness (log ratio)” value does the source give for U30C A46G A74G G113A here?
**A.** The value was -2.75.

**Q.** With U30A G39U C101A A111U A119G C123G as the variant, how does the “polymerase ribozyme fitness (log ratio)” value read?
**A.** Its value is -6.64.

**Q.** For A29U C62U C89G, which “polymerase ribozyme fitness (log ratio)” value is on record?
**A.** The value was -3.

**Q.** With A29U C73U C98U A111C as the variant, how does the “polymerase ribozyme fitness (log ratio)” value read?
**A.** The value was -3.36.

**Q.** With C28G C98U C124U as the variant, how does the “polymerase ribozyme fitness (log ratio)” value read?
**A.** The value was -3.04.

**Q.** Which “polymerase ribozyme fitness (log ratio)” value does the source give for A29G A118U here?
**A.** The value was -0.684.

**Q.** With U30G C115A as the variant, how does the “polymerase ribozyme fitness (log ratio)” value read?
**A.** The value was -5.72.

**Q.** Which “polymerase ribozyme fitness (log ratio)” value does the source give for C28U G45A C70U C124U here?
**A.** Its value is -2.79.

**Q.** For U30A G48C G63U C124A, which “polymerase ribozyme fitness (log ratio)” value is on record?
**A.** The value was -5.12.

**Q.** Which “polymerase ribozyme fitness (log ratio)” value does the source give for A29U G120U here?
**A.** The value was -0.652.

**Q.** Which “polymerase ribozyme fitness (log ratio)” value does the source give for U32C C72G G117U U134G here?
**A.** The value was -1.41.

**Q.** With C28U A50U C62U A68G U106A G110A C114A as the variant, how does the “polymerase ribozyme fitness (log ratio)” value read?
**A.** The value was -6.37.

**Q.** Which “polymerase ribozyme fitness (log ratio)” value does the source give for A29C A37C C94U G120C here?
**A.** Its value is -4.25.

**Q.** With C28G G77U as the variant, how does the “polymerase ribozyme fitness (log ratio)” value read?
**A.** The value was -3.74.

**Q.** For A29U C76G C86A, which “polymerase ribozyme fitness (log ratio)” value is on record?
**A.** Its value is -2.31.

**Q.** Which “polymerase ribozyme fitness (log ratio)” value does the source give for U32C C49U C53U A75G A83C C99U here?
**A.** Its value is -5.45.

**Q.** With C31U A119G as the variant, how does the “polymerase ribozyme fitness (log ratio)” value read?
**A.** Its value is -3.71.

**Q.** Which “polymerase ribozyme fitness (log ratio)” value does the source give for U33C C64U here?
**A.** Its value is -3.44.

**Q.** Which “polymerase ribozyme fitness (log ratio)” value does the source give for U32C C70G A74C here?
**A.** Its value is -5.82.

**Q.** With A29C G52C C114U as the variant, how does the “polymerase ribozyme fitness (log ratio)” value read?
**A.** The value was -4.25.

**Q.** Which “polymerase ribozyme fitness (log ratio)” value does the source give for U32G C72U C102U G113A here?
**A.** The value was -7.34.

**Q.** Which “polymerase ribozyme fitness (log ratio)” value does the source give for U32C U54C G71C A95C here?
**A.** The value was -3.01.

**Q.** Which “polymerase ribozyme fitness (log ratio)” value does the source give for C31G A50C U109G U131A here?
**A.** The value was -4.54.

**Q.** With C31U G110A as the variant, how does the “polymerase ribozyme fitness (log ratio)” value read?
**A.** Its value is -4.35.

**Q.** Which “polymerase ribozyme fitness (log ratio)” value does the source give for C28U G60C A118G here?
**A.** The value was -2.75.

**Q.** For A29U G52U U106C G117A A118U C124G, which “polymerase ribozyme fitness (log ratio)” value is on record?
**A.** The value was -1.91.

**Q.** Which “polymerase ribozyme fitness (log ratio)” value does the source give for U30A U129G here?
**A.** Its value is -4.77.

**Q.** Which “polymerase ribozyme fitness (log ratio)” value does the source give for A29G G42C here?
**A.** The value was -2.66.

**Q.** With U30A G61A C88U as the variant, how does the “polymerase ribozyme fitness (log ratio)” value read?
**A.** Its value is -5.29.

**Q.** With C31U C72G as the variant, how does the “polymerase ribozyme fitness (log ratio)” value read?
**A.** The value was -4.16.

**Q.** With U32A U59C as the variant, how does the “polymerase ribozyme fitness (log ratio)” value read?
**A.** The value was -3.8.

**Q.** For U30C G71U U87C, which “polymerase ribozyme fitness (log ratio)” value is on record?
**A.** The value was -4.19.

**Q.** Which “polymerase ribozyme fitness (log ratio)” value does the source give for A29G U32C G42U G47C here?
**A.** The value was -4.18.

**Q.** Which “polymerase ribozyme fitness (log ratio)” value does the source give for C28G G57C G63C C73U A83C C123A here?
**A.** Its value is -5.12.

**Q.** Which “polymerase ribozyme fitness (log ratio)” value does the source give for C31G G42U C72G C98U G107C C115U here?
**A.** The value was -6.04.

**Q.** For U32C C99U, which “polymerase ribozyme fitness (log ratio)” value is on record?
**A.** Its value is -2.13.

**Q.** With A29G C76A G120U as the variant, how does the “polymerase ribozyme fitness (log ratio)” value read?
**A.** Its value is -1.97.

**Q.** Which “polymerase ribozyme fitness (log ratio)” value does the source give for U32A A121U U133A here?
**A.** Its value is -1.22.

**Q.** For C31G A41U U55G G61U C86U G93C C102U G113C, which “polymerase ribozyme fitness (log ratio)” value is on record?
**A.** The value was -6.73.

**Q.** With U32G C70G C98G as the variant, how does the “polymerase ribozyme fitness (log ratio)” value read?
**A.** The value was -6.14.

**Q.** Which “polymerase ribozyme fitness (log ratio)” value does the source give for A29G G63A C88A here?
**A.** Its value is -2.37.

**Q.** With C28G G63A G93U C114A A118C as the variant, how does the “polymerase ribozyme fitness (log ratio)” value read?
**A.** Its value is -7.47.

**Q.** Which “polymerase ribozyme fitness (log ratio)” value does the source give for C28G G61A here?
**A.** The value was -2.51.

**Q.** For A29G C72G C80G A105C C123G, which “polymerase ribozyme fitness (log ratio)” value is on record?
**A.** Its value is -7.14.

**Q.** For U32C G61U C85G, which “polymerase ribozyme fitness (log ratio)” value is on record?
**A.** The value was -3.56.

**Q.** With U32A C40U G63A A83G G120C as the variant, how does the “polymerase ribozyme fitness (log ratio)” value read?
**A.** The value was -7.22.

**Q.** For C31G C62U A84G U87A G93U G120U, which “polymerase ribozyme fitness (log ratio)” value is on record?
**A.** Its value is -6.9.

**Q.** For U32G A37U C73U G113A, which “polymerase ribozyme fitness (log ratio)” value is on record?
**A.** The value was -6.09.

**Q.** With C28U G61A C64U A121C as the variant, how does the “polymerase ribozyme fitness (log ratio)” value read?
**A.** The value was -4.25.

**Q.** Which “polymerase ribozyme fitness (log ratio)” value does the source give for C31A G36C G60C C72G C98A C99A C124U G128U here?
**A.** Its value is -7.42.

**Q.** Which “polymerase ribozyme fitness (log ratio)” value does the source give for U33A C79U C94A C104U G120A here?
**A.** Its value is -4.61.

**Q.** For C28U A50U C123U, which “polymerase ribozyme fitness (log ratio)” value is on record?
**A.** The value was -3.55.

**Q.** With A29G A105U as the variant, how does the “polymerase ribozyme fitness (log ratio)” value read?
**A.** The value was -4.23.

**Q.** Which “polymerase ribozyme fitness (log ratio)” value does the source give for U32C G42U here?
**A.** The value was -2.17.
